Values of other authors in article PMC8569824.
pKi: −log10 of the molar value.

Biological target: Amyloid beta (1-40) Aβ 1-40 (Homo sapiens) (UniProt P05067)
Test: seed-dependent aggregation inhibition

Chain of UniProt P05067 (P05067 1-40): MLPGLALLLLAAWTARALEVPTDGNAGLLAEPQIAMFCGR

pKi: 6.12
Substance: L-PGDS (from UniProt P41222)
